Entries after “also recorded” stand apart in the source; their conditions may differ.
How the values were obtained:
sortilin [1] = target: T1, sortilin (Homo sapiens, UniProt Q99523); assay: Cell-based assay of GSTpro (NGF prodomain) binding/uptake, wt sortilin-transfected HEK293 cells, sortilin/GST double stain, high content imaging, with detergent; settings: for signal and assay window, GSTpro compared to proNGF (in words): Fig. 3u, sortilin-transfected cells
T1 construct: They were transfected with plasmids either encoding wild type sortilin, or sortilin with a mutation that renders it endocytosis deficient; expressed in transfected cells; host or cells: HEK 293 cells, transient transfection (lipofectamine)
T1 sequence (Q99523 78-831): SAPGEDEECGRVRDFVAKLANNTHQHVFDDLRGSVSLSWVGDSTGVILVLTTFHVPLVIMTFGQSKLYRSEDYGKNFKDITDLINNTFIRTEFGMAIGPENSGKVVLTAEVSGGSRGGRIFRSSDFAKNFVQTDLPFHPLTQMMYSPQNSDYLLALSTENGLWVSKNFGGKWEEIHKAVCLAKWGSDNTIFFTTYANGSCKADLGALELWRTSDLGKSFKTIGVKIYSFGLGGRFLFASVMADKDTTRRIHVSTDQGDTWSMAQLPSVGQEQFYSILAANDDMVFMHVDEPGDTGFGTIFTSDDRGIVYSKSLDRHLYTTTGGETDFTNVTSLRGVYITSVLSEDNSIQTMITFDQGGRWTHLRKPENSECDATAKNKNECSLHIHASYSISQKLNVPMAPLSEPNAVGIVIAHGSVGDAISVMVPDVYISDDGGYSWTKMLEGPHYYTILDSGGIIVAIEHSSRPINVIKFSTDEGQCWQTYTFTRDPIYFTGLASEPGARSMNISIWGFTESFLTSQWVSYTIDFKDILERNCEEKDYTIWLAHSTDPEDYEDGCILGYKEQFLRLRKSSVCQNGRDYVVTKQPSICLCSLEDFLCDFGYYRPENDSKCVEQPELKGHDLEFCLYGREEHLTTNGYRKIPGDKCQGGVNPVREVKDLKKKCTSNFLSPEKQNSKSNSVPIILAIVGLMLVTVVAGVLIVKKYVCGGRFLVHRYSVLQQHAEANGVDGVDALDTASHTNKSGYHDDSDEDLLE
Method: HEK 293 cells were grown in DMEM with 10% fetal bovine serum. They were transfected with plasmids either encoding wild type sortilin, or sortilin with a mutation that renders it endocytosis deficient, or an empty control vector according to manufacturer’s instructions using 20 µg lipofectamine (Thermo Fischer Scientific) with 8 µg DNA on […] per 6 cm, poly-lysine coated dish. The cells were initially plated into 24-well dishes after transfection. That intermediate step rendered more uniform cell numbers in the 96-well dishes that were used to run the actual assay. 24 h later, cells were split into black opaque-walled, clear-bottom 96 well dishes at 42000 cells in 80 µl medium/well. […] 1 h after that treatment, the medium was replaced with 80 µl medium containing the same antibody, compounds or peptides included in the preincubation medium, plus recombinant GSTpro or proNGF (either purified in-house from recombinant HEK cells or derived from an E.coli expression system at either 0 nM (negative control), or 50 nM, or, in a few instances at 5 or 10 nM. The respective concentrations are indicated in the figures 45 min after adding GSTpro or proNGF, cells were washed twice with prewarmed PBS and fixed in 4% PFA for 20 min at approximately 20 °C.
(§1) The fixed cells were washed with PBS for 15 min, followed by two 15 min washes with PBS with 0.1% Triton X-100. […] Wells to be evaluated for blocking of the sortilin-GSTpro interaction by antibodies were only stained with an antibody against the pro domain of proNGF in 10% FBS at a dilution of 1:1500 (Millipore (N-term) clone EPI318Y, Rabbit Monoclonal Antibody Catalog Number: #04-1142). […]
(§2) The following day, wells were washed 3 × 15 min with PBS/0.1% Triton X-100. […] Cellular fluorescence was quantified using an array scanner and the “Neuronal Profiler” Bioapplication (Thermo Fisher Scientific) as described below.
Sortilin-GSTpro interaction was also assessed using HEK cell derived cell lines stably expressing sortilin. […]
Images from 96 well dishes were automatically recorded with a Cellomics ArrayScan VTI HCS Reader (Thermo Scientific) using a 10× microscope objective and the build-in standard autofocus method. Fifteen 1024 × 1024 images in 4 channels (Channel 1 and 2: Filter XF5–Hoechst, to detect nuclei and all cells; Channel 3: XF53-Texas Red to detect, e.g., sortilin-positive cells; Channel 4: Filter XF93 – FITC, to detect cells positive, e.g., for the proNGF pro domain) were recorded per 96 well.
The images were analyzed with the Cellomics assay algorithm NeuronalProfiling.V3.5.

sortilin [2] = target: T1, sortilin; assay: GSTpro binding to wt sortilin-transfected HEK293 cells, staining without detergent permeabilization; format: cell-based; settings: versus staining with detergent, Fig. 6a vs 6b
Method: HEK 293 cells were grown in DMEM with 10% fetal bovine serum. They were transfected with plasmids either encoding wild type sortilin, or sortilin with a mutation that renders it endocytosis deficient, or an empty control vector according to manufacturer’s instructions using 20 µg lipofectamine (Thermo Fischer Scientific) with 8 µg DNA on […] per 6 cm, poly-lysine coated dish. The cells were initially plated into 24-well dishes after transfection. That intermediate step rendered more uniform cell numbers in the 96-well dishes that were used to run the actual assay. 24 h later, cells were split into black opaque-walled, clear-bottom 96 well dishes at 42000 cells in 80 µl medium/well. […]
as §1, §2

- signal and assay window, GSTpro compared to proNGF (in words) (sortilin [1]): substantially larger compared to proNGF
- signal and assay window, GSTpro compared to proNGF (in words) (sortilin [1]; listed as GST-pro): larger signal and assay window
- reduction of GSTpro signal without permeabilization (sortilin [2]; cells expressing sortilin below the set threshold): less than half reduced
B1: GSTpro: fusion of Glutathione S-transferase (GST) merged at the C-terminal of GST to the pro part (19–121) of human proNGF (protein)
chain: EPHSESNVPAGHTIPQAHWTKLQHSLDTALRRARSAPAAAIAARVAGQTRNITVDPRLFKKRRLRSPRVLFSTQPPREAADTQDLDFEVGGAAPFNRTHRSKR
modifications: left off: GST, N-terminal, kept
notes: fusion of Glutathione S-transferase (GST) merged at the C-terminal of GST to the pro part (19–121) of human proNGF
- GSTpro signal, sortilin-positive versus sortilin-negative (or control-transfected) cells (in words) (sortilin [1]; Figs. 3, 4b, 6, 7, 8): highly enhanced GSTpro uptake or binding; also recorded: several fold higher GSTpro signal in sortilin-positive cells
- reduction of GSTpro signal without permeabilization (sortilin [2]; sortilin-positive cells): almost fourfold reduced; also recorded: much lower GSTpro signal
